In patent US20130101605A1:

Assays:
[1] = target: RGM of chick tectal membranes (chick) (UniProt Q8JG54); experiment: cell-based or functional assay
[2] = target: DCC (Deleted in Colorectal Cancer) expressed on COS-7 cells; experiment: RGM-AP binding to transfected COS-7 cells
[3] = target: mouse Neogenin expressed on COS-7 cells (mouse) (UniProt P97798); experiment: AP fusion binding to transfected COS-7 cells, saturation and Scatchard analysis
UniProt P97798, sequence (P97798 37-1492): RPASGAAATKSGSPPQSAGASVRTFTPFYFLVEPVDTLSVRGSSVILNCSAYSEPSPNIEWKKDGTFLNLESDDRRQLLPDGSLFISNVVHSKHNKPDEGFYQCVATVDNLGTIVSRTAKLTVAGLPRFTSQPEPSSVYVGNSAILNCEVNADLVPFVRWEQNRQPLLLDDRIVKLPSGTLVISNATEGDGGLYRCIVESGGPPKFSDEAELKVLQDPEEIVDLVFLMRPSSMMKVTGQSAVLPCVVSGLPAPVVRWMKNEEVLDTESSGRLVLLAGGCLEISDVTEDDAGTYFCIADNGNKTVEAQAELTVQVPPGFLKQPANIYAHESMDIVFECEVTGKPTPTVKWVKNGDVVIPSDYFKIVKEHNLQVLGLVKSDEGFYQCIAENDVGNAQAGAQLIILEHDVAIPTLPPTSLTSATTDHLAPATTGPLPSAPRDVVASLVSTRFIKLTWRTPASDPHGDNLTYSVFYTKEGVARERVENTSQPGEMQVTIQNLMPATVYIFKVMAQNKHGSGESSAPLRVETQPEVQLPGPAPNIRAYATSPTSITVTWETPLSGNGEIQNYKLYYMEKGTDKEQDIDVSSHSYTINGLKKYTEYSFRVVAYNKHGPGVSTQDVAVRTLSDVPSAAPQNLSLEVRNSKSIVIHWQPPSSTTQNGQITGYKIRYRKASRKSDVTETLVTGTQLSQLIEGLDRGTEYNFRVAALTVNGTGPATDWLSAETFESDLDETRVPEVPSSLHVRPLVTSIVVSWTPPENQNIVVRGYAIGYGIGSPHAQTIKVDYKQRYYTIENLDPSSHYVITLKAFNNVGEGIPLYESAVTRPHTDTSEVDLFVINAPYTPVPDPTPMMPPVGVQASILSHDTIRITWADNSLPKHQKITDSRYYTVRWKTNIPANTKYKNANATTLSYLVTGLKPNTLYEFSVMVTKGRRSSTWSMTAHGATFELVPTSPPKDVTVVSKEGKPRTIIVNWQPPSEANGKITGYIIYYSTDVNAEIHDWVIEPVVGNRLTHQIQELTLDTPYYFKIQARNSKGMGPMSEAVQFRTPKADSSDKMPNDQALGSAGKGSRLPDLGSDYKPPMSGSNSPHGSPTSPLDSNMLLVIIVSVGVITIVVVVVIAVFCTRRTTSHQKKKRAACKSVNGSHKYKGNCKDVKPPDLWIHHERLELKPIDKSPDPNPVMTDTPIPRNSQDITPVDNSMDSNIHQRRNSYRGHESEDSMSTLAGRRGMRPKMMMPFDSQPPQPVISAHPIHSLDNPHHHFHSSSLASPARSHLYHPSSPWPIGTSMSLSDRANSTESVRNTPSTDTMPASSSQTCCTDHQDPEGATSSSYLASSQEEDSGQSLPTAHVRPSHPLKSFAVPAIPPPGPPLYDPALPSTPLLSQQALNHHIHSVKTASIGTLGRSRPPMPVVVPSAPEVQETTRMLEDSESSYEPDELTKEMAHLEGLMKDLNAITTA

UniProt Q8JG54, sequence (Q8JG54 150-404 limits assumed): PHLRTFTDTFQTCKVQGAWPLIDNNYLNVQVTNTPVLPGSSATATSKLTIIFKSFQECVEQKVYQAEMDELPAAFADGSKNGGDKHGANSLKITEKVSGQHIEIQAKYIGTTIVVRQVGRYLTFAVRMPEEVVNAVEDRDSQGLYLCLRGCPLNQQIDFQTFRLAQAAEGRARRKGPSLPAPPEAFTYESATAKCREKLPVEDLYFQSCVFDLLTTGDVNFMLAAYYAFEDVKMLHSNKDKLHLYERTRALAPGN

| retinotectal stripe assay: blockade of retinal axon stripe preference [1] | fold lower affinity than for Neogenin [2] | Kd [3] | Substance |
| --- | --- | --- | --- |
| 400 nM | – | – | Soluble ectodomain of chick Neogenin-1 (1-1027) with a carboxyl MycHis tag (from UniProt Q90610 1-1027) (receptor) |
| – | 50 fold | 0.23 nM | chick RGM-AP fusion protein (chick RGM aa 28 to 403 fused to human placental alkaline phosphatase, carboxy-terminal Myc His tag) (from UniProt Q8JG54 28-403; P05187 23-511) (ligand) |
